Series [1] deals with collagenase-3 receptor and low density lipoprotein receptor-related protein on MEF-1 cells. As to the kind of experiment: competition with ^125I mouse collagenase-3 on MEF-1 cells; 200-, 400- and 800-fold excess of competitor.
Series [2] addresses collagenase-3 dual receptor system on UMR 106-01 cells (collagenase-3 receptor and low density lipoprotein receptor-related protein). As to the kind of experiment: competition with ^125I mouse collagenase-3 on UMR-106-01 cells; 200-, 400- and 800-fold excess of competitor.
The target in series [3] is collagenase-3 receptor (170 kDa protein) of mouse embryo fibroblasts MEF-1 and MEF-2 (mouse) (UniProt Q64449). As to the kind of experiment: competition with ^125I mouse collagenase-3 on MEF-2 (LRP null) cells; 200-, 400- and 800-fold excess of competitor.
Sequence of collagenase-3 receptor (170 kDa protein) of mouse embryo fibroblasts MEF-1 and MEF-2 (mouse) (Q64449 31-1479): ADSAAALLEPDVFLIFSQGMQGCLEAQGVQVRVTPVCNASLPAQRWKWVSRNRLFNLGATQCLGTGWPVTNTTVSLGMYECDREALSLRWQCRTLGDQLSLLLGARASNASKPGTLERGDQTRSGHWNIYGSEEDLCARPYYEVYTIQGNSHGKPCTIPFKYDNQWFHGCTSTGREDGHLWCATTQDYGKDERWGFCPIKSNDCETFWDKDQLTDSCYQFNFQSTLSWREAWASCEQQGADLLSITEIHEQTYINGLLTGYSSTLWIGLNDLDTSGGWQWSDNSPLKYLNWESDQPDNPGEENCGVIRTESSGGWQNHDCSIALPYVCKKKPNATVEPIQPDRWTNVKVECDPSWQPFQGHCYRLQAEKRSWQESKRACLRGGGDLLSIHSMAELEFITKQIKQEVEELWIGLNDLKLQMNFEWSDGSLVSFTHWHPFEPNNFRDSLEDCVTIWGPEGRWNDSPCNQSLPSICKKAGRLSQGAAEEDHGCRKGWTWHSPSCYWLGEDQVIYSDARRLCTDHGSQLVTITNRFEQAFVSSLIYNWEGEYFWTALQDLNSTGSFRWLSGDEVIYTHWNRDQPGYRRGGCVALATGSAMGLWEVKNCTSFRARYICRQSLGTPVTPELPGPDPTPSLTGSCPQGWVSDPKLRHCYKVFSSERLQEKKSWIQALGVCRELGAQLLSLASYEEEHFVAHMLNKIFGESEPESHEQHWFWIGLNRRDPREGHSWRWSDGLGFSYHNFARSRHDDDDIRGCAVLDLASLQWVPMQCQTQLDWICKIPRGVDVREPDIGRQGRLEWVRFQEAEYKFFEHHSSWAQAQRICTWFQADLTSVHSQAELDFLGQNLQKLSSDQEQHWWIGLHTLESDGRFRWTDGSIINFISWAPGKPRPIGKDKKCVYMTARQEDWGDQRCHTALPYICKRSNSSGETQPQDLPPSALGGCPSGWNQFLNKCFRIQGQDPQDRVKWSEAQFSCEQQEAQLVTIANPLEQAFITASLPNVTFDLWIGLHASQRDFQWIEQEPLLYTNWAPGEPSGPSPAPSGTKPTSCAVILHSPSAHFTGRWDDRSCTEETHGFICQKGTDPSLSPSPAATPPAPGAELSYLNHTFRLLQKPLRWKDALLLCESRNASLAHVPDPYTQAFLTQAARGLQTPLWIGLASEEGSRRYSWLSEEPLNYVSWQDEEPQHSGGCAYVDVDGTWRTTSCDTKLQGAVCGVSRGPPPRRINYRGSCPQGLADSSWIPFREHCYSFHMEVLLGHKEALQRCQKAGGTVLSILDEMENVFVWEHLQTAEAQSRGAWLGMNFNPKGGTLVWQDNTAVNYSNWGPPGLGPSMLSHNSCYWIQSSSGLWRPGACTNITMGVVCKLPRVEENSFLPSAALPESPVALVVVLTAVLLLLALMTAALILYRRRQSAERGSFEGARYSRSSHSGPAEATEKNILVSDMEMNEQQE
In series [4] the target is collagenase-3 dual receptor system on UMR 106-01 cells (collagenase-3 receptor and low density lipoprotein receptor-related protein). Description: competition with ^125I mouse collagenase-3 on UMR cells.
For series [5], the target named is low density lipoprotein receptor-related protein of human chondrocytes (UniProt Q07954).
Series [6] has the same target. As to the kind of experiment: cell-based or functional assay.
The target in series [7] is rat collagenase-3 receptor (170 kDa protein) of UMR 106-01 rat osteosarcoma cells and other rat cells (rat). As to the kind of experiment: ^125I-labeled ligand at 8 nM on UMR cells, triplicate wells.
Sequence of rat collagenase-3 receptor (170 kDa protein) of UMR 106-01 rat osteosarcoma cells and other rat cells (rat) (Q4TU93 31-1480): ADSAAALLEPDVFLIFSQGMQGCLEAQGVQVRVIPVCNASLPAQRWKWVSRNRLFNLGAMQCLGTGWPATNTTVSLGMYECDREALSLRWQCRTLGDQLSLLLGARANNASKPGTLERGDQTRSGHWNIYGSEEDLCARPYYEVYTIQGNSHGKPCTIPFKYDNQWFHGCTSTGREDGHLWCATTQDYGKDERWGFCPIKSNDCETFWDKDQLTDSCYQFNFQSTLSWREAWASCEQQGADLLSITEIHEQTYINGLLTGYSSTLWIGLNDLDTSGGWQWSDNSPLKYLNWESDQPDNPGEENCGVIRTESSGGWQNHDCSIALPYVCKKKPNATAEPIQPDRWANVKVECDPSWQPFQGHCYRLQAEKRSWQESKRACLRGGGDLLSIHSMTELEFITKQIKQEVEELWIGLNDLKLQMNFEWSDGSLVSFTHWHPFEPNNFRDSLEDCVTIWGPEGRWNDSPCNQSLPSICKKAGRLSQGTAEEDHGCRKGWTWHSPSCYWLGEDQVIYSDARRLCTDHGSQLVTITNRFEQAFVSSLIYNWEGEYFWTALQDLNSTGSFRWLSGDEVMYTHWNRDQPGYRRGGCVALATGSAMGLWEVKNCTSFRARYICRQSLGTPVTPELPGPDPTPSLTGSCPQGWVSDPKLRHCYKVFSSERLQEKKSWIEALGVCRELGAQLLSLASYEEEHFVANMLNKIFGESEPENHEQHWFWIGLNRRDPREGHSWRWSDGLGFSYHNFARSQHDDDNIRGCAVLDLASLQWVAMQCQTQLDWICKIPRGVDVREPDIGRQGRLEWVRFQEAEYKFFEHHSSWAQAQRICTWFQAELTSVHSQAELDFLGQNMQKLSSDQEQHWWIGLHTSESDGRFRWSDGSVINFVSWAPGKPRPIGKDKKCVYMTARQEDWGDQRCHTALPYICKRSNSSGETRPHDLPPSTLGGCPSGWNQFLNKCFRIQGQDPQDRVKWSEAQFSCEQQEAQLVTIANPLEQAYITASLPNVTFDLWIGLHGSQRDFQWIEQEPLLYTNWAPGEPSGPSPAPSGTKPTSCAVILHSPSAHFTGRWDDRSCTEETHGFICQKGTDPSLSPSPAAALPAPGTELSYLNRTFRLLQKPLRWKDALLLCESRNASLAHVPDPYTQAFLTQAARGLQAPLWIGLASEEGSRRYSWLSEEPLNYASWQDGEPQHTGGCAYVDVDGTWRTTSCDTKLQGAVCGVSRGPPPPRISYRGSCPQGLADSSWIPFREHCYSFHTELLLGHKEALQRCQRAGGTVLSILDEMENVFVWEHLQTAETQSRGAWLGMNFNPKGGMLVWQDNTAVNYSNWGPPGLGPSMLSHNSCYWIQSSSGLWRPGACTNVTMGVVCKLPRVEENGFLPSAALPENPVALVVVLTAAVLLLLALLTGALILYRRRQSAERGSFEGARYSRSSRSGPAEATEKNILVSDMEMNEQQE
The target is the same in series [8]. As to the kind of experiment: ^125I-labeled ligand at 10 nM on UMR cells, triplicate wells.

Where only a bound is given, the exact number is not on record here.

Sequence of human fibroblast collagenase-1 (MMP-1) (P03956 100-469): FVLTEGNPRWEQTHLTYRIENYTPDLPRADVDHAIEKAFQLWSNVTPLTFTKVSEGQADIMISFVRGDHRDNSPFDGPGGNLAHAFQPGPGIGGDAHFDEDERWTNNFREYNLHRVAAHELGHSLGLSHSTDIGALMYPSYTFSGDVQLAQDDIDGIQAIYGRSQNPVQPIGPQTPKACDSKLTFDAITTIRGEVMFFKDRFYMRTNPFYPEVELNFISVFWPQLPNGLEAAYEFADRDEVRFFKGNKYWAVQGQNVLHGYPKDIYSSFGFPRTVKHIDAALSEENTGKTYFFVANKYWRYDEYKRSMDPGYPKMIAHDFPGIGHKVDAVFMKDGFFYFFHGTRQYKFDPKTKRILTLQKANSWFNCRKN
Sequence of human 72 kDa gelatinase (MMP-2) (P08253 30-660 limits assumed): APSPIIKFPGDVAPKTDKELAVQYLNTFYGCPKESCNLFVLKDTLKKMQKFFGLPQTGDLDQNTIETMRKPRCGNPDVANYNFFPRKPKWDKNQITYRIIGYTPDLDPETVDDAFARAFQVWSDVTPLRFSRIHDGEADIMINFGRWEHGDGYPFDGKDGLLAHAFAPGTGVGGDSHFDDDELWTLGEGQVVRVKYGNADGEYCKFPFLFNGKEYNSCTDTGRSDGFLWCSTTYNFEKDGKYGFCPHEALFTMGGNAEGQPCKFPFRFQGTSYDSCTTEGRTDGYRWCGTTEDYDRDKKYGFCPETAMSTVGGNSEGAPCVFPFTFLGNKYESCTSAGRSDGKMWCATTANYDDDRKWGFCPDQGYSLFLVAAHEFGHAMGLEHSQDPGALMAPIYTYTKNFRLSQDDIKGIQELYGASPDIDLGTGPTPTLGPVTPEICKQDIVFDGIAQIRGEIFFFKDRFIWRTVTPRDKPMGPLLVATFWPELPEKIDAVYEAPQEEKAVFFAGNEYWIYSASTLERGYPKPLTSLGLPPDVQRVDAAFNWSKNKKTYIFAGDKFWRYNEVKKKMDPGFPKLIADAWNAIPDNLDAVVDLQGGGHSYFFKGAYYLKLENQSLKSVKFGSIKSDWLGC
Sequence of human 92 kDa gelatinase (MMP-9) (P14780 20-707 limits assumed): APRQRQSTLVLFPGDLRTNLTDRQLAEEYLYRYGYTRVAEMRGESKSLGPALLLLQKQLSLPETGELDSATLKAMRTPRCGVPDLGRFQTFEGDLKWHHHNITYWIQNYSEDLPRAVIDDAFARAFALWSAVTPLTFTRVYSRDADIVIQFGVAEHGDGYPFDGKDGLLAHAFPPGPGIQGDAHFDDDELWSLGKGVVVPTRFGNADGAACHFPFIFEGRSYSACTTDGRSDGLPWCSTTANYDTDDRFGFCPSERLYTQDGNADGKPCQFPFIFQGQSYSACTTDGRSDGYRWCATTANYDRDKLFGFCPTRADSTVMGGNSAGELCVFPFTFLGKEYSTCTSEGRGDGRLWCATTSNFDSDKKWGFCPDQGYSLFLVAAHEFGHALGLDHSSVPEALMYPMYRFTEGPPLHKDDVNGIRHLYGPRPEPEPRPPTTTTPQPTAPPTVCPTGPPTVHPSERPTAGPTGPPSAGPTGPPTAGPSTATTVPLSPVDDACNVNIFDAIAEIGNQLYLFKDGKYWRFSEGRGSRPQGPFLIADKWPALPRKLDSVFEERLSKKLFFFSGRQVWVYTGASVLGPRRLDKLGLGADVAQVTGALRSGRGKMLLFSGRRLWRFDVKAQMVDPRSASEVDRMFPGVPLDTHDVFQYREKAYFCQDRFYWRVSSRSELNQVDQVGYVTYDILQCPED

Turning to “C-terminally truncated mouse collagenase-3, M(1-265) (from UniProt P33435 20-265) (enzyme)”, the percent of mouse collagenase-3 binding in series [1] and in series [2] was 100% each time.

With “H/M(229-472) chimeric collagenase (from UniProt P03956 20-223; P33435 229-472) (enzyme)”, the percent of mouse collagenase-3 binding in series [1] is 2.2%; in series [2], 16.5%.

Take “HM(141-228)/H chimeric collagenase (from UniProt P03956 20-135; P33435 141-228; P03956 224-408) (enzyme)”: the percent of mouse collagenase-3 binding was 94.3% in series [1], 89.9% in series [2] and 75.1% in series [3].

For “HM(166-228)/H chimeric collagenase (from UniProt P03956 20-160; P33435 166-228; P03956 224-408) (enzyme)”, the percent of mouse collagenase-3 binding was 80.8% in series [1], 67.8% in series [2] and 97.2% in series [3].

As for “HM/M(141-472) chimeric collagenase (from UniProt P03956 20-135; P33435 141-472) (enzyme)”, the percent of mouse collagenase-3 binding is 84.4% in series [1] and 95.7% in series [2].

With “M(1-228)/H chimeric collagenase (from UniProt P33435 20-228; P03956 224-408) (enzyme)”, in series [4], the competition efficiency compared to full-length collagenase-3 is more than 90%. For the same substance, the percent of mouse collagenase-3 binding in series [1] was found to be 85.9%; in series [2], 85.3%; in series [3], 41.9%.

Regarding “MH(213-267)/M chimeric collagenase (exon 5 replacement) (from UniProt P33435 20-212; P03956 213-267; P33435 268-472) (enzyme)”, the percent of mouse collagenase-3 binding came to 99.1% in series [1], 95.5% in series [2] and 98.7% in series [3].

As for ^125I collagenase-3 of Example 3, in series [5], the “reduction of collagenase-3 internalization by RAP in osteoarthritis chondrocytes” value is “by 74.3%”.

“^125I collagenase-3 of Example 3 (enzyme)” yielded an inhibition of collagenase-3 internalization by receptor-associated protein in control human chondrocytes in series [6] of 88.2%.

Consider “human 72 kDa gelatinase (MMP-2) (from UniProt P08253 30-660) (enzyme)”, for which the Specific binding (fmol/2.6 × 10^5 cells) in series [7] was determined as 0.

With “human 92 kDa gelatinase (MMP-9) (from UniProt P14780 20-707) (enzyme)”, the Specific binding (fmol/2.6 × 10^5 cells) in series [8] came out at 3.9.

Substance “human fibroblast collagenase-1 (MMP-1) (from UniProt P03956 100-469) (enzyme)” registered a Specific binding (fmol/2.6 × 10^5 cells) in series [7] of 0.1. The same substance showed a percent of mouse collagenase-3 binding in series [2] of 0%.

“human stromelysin-1 (MMP-3) (from UniProt P08254 18-477) (enzyme)” gave a Specific binding (fmol/2.6 × 10^5 cells) in series [7] of 0.

Take “recombinant mouse collagenase-3 (mMMP-13, residues 1-472) (from UniProt P33435 20-472) (enzyme)”: the percent of mouse collagenase-3 binding in series [1] and in series [2] was 100% each time.

These data come from US6403637.
